The text below walks through data of US11643448B2 (JAPAN SCIENCE AND TECHNOLOGY AGENCY, priority 2013, dated 2023).

As a reminder, the cell viability is the share of living cells, or the viability signal relative to a control.

Where two headings read alike, the source gives them in different places. Where only a bound is given, the exact number is not on record here.

The target of one series is Aβ (Homo sapiens, UniProt P05067). The series is described as follows: Oxidation of Aβ by catalyst under light irradiation. In kind it is biochemical. As to conditions: Catalyst 1 4 μM or Catalyst 2 20 μM, Aβ 20 μM, 500 nm LED, 37° C., 15 minutes.
In series [1] the test system is PC12 cells. Kind of series: Cell viability after photo-oxygenation reaction in the presence of cells (WST-8). Format: cell-based, rat. The settings on record: light irradiation, regardless of presence or absence of Aβ (f and h). The procedure: In a plate well in which the PC12 cells had been seeded, a phosphate buffer (pH 7.4, 50 μL) containing 20 μM of Aβ and a catalyst (Catalyst 1 in 4 μM or Catalyst 2 in 20 μM) was irradiated with 500 nm LED (light emitting diode) at 37° C. for 15 minutes. After the reaction, 50 μL of a HEPES buffer solution containing a 0.1% horse serum-containing medium was added to thereto (final Aβ concentration: 10 μM).
In order to achieve Aβ selective oxidation, a peptide having a high affinity for Aβ, D-[Lys-Leu-Val-Phe(4-phenyl)-Phe] (SEQ ID NO: 3) was identified, and was bonded to flavin as an affinity tag of Aβ (Catalyst 2 in FIG. 17). Catalyst 2 or riboflavin itself (Catalyst 1 in FIG. 17) was added to a phosphate buffer containing Aβ, and the mixture was irradiated with light in the presence of cells. 500 nm LED was used as a light source, and light was irradiated at 37° C. for 15 minutes. […] After the oxidation reaction, the cells were further incubated for 2 days, and the cell viability was determined thereafter (bar graph in FIG. 17). […] It is conceivable that the cells were damaged due to non-specific oxidation. On the other hand, when Catalyst 2 was used in the absence of Aβ under the condition j, 50% or more of the cells survived after the light irradiation. […]
For orientation: Formazan colour is commonly taken as a measure of viable cells.

Series [2] concerns PC12 cells. The settings on record: 10 µM.
Procedure: PC12 cells, i.e., rat adrenal medulla-derived pheochromocytoma (purchased from RIKEN, Japan), were used. A phosphate buffer (pH 7.4) in which Aβ1-42 (20 μM) and riboflavin (4 μM) had been dissolved was incubated at room temperature under irradiation with a fluorescent lamp (24 W, natural white, a distance between a light source and a reaction mixture was about 3 cm). A part of the reaction mixture (50 μL) was added to a cell culture medium (50 μL) (final Aβ concentration was 10 μM), and the mixture was incubated at 37° C. for 48 hours under 5% CO2 atmosphere. Cells were observed and photographed using an inverted microscope DMI6000 B (Leica Microsystems GmbH, Wetzlar, Germany) equipped with a digital camera DFC360 FX (Leica Microsystems GmbH). A cell count reagent containing WST-8 (2-(2-methoxy-4-nitrophenyl)-3-(4-nitrophenyl)-5-(2,4-disulfonyl)-2H-tetrazolium, monosodium salt) (10 μL) was added to the mixture. The mixture was incubated at 37° C. for 6 hours under 5% CO2 atmosphere. Thereafter, absorbance at 450 nm (reference wavelength: 655 nm) was measured by iMark™ plate reader (Bio-Rad Laboratories, Inc., Hercules, Calif.).
In series [3] the target is T1, Aβ1-42 (Homo sapiens, UniProt P05067). Kind of series: Circular dichroism spectroscopy analysis. As to conditions: Aβ1-42 20 μM, 37° C. In kind it is biochemical.
Procedure: A phosphate buffer (10 mM, pH7.4) in which Aβ1-42 (20 μM) and riboflavin (4 μM) had been dissolved was incubated at 37° C. under irradiation with a fluorescent lamp (24 W, natural white, a distance between a light source and a reaction mixture was about 3 cm). A part of the reaction mixture was analyzed using Model 202SF (AVIV Biomedical, Inc., Lakewood, N.J.).
The target of series [4] is T1, Aβ1-42. Kind of series: Atomic force microscope analysis of fibril formation. In kind it is biochemical. The settings on record: Aβ1-42 20 μM, 37° C.
Procedure: A phosphate buffer (10 mM, pH 7.4) in which Aβ1-42 (20 μM) and riboflavin (4 μM) had been dissolved was incubated at 37° C. under irradiation with a fluorescent lamp (24 W, natural white, a distance between a light source and a reaction mixture was about 3 cm). A part of the reaction mixture (10 μL) was added on mica, incubated at room temperature for 3 minutes, washed with 20 μL of water, and air dried. The measurement was carried out using Nano Wizard II (JPK instruments AG, Berlin, Germany) in a tapping mode in air at room temperature.
Series [5] has as its target T1, Aβ1-42. The series is described as follows: Thioflavin T fluorescence assay of aggregation. Format: biochemical. As to conditions: Aβ1-42 20 μM, 37° C., incubation time of 3 hours and 6 hours. The procedure: A part of the reaction mixture (10 μL) was added to a 50 mM glycine-NaOH buffer (pH 8.5, 400 μL) containing thioflavin T (5 μM), and the resultant mixture was immediately mixed to measure a fluorescence intensity of thioflavin T. In the fluorescence intensity measurement, an excitation wavelength was 440 nm, and a fluorescence wavelength was 470 nm.
A phosphate buffer having the same composition was reacted with no irradiation to provide a sample “native Aβ” as a control. Aggregation of each sample was evaluated by thioflavin T assay (it is known that fluorescence intensity of thioflavin T corresponds to the amount of an aggregate being rich in β sheet structure) (FIG. 11).

A further series has as its target native Aβ (Homo sapiens, UniProt P05067). Kind of series: Inhibition of aggregation of native Aβ by oxidized Aβ (atomic force microscope analysis). In kind it is biochemical. As to conditions: native Aβ 20 μM with oxidized Aβ 20 μM, 37° C., 6 hours, compared with native Aβ alone. The procedure:
A part of the reaction mixture (10 μL) was added on mica, incubated at room temperature for 3 minutes, washed with 20 μL of water, and air dried. The measurement was carried out using Nano Wizard II (JPK instruments AG, Berlin, Germany) in a tapping mode in air at room temperature.

T1 sequence (P05067 672-713): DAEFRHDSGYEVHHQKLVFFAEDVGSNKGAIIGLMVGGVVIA
Sequence of native Aβ (P05067 672-713): as above
Sequence of Aβ (P05067 672-713 limits assumed): as the sequence (P05067 672-713) above

As for `Cc1cc2nc3c(=O)[nH]c(=O)nc-3n(C[C@H](O)[C@H](O)[C@H](O)CO)c2cc1C` [Catalyst 1, riboflavin], on Aβ, the “extent of Aβ oxidation” value is “about 60%”. For the same compound, in the series with PC12 cells [1], the cell viability entry is listed as “almost all cells died”.
As for “oxidized Aβ: Aβ1-42 oxidized with riboflavin under light; Tyr10, His13, His14 and Met35 oxidized, one to eight oxygen atoms added”, in the series with PC12 cells [2], the cell viability is ≥ 50%. The “secondary structure by circular dichroism” value with Aβ1-42 [3] is on record as “random coil structure was maintained”. Besides, the fibril formation entry in the series with Aβ1-42 [4] is on record as “hardly”. Also, the “fluorescence intensity of thioflavin T” value in the series with Aβ1-42 [5] is given as “significantly lower than that of the native Aβ”. In the series with native Aβ, the amyloid fibril content result is recorded as “significantly decreased”.
